In article PMC4486954, “Highly homologous proteins exert opposite biological activities by using different interaction interfaces” (Scientific Reports, 2015):

T1: iASPP Ank-SH3 (Homo sapiens, UniProt Q8WUF5)
T1 construct: (2) iASPP Ank-SH3 603-828; HLT tag (His tag + lipoyl domain + TEV site) (N, cleaved yes); made in house; host or cells: E. coli HMS 174 (Novagen)
T1 sequence (Q8WUF5 603-828): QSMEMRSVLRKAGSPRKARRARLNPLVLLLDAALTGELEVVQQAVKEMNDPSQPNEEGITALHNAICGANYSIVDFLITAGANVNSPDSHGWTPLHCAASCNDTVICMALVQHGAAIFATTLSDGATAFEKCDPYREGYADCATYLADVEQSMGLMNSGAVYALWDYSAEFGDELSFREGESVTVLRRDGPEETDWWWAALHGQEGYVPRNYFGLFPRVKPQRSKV

T2: HLT-iASPP Pro (human, UniProt Q8WUF5 1-602)
T2 construct: iASPP (human), proline rich (Pro) domain, residues 1-602 of the 828-residue protein, Swiss-Prot Q8WUF5; Cloned EcoRI/NotI into pHis parallel 2HLT; calculated Mw with tag 75.9 kDa; also called iASPP Pro 1-602; iASPP 1-602; source: E. coli Rosetta2, purified (Nickel Sepharose, size exclusion chromatography); not shown: HLT (His tag, lipoyl domain, TEV protease cleavage site), N-terminal, kept
T2 sequence (looked up): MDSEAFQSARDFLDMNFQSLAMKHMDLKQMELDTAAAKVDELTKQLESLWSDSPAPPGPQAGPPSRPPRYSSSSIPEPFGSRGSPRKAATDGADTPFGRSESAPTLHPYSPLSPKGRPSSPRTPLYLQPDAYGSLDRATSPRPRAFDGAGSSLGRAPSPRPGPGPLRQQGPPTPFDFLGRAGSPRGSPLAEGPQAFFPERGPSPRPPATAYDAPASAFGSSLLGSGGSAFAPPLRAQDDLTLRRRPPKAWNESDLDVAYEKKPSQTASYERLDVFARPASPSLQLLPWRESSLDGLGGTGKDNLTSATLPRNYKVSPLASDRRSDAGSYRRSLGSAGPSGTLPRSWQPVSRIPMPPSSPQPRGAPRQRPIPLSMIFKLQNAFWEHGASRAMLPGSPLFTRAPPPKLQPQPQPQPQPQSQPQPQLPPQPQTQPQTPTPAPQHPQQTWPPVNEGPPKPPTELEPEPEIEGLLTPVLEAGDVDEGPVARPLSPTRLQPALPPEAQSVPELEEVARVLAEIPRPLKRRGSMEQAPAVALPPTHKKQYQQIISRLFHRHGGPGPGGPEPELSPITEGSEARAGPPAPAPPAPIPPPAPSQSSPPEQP


How the values were obtained:
[1] = molecular target: T1, iASPP Ank-SH3; experiment: Nickel affinity pulldown of iASPP Ank-SH3 by HLT-iASPP Pro; type: binding; conditions: Nickel-NTA beads with HLT-iASPP Pro 1 h at 4 °C, then iASPP Ank-SH3 2 h at 4 °C; SDS-PAGE coomassie staining
Experimental: After purifying the recombinant HLT-iASPP Pro and iASPP Ank-SH3 we tested whether the recombinant proteins interact using Nickel affinity pulldown assay. Nickel-NTA beads were incubated for one hour with HLT-iASPP Pro or with buffer or HLT alone. Then the beads were incubated with iASPP Ank-SH3 for two hours.
Figure 4 HLT-iASPP Pro interacts with iASPP Ank-SH3 in vitro. Nickel affinity pulldown of iASPP Ank-SH3 by HLT-iASPP Pro, SDS PAGE gel coomassie staining results. Nickel-NTA beads were incubated with HLT-iASPP Pro or with buffer or HLT fusion domain alone, for 1 h at 4 °C. The samples were centrifuged and then incubated with iASPP Ank-SH3 for 2 h at 4 °C. The samples were centrifuged again and the beads were washed 3 times. The beads were eluted by boiling them in SDS solution. Ank-SH3 eluted from the beads only in the presence of HLT-iASPP Pro.
30 μl Nickel-NTA beads (Qiagen) were incubated with: (1) 500 μl buffer C (50 mM Phosphate buffer pH = 7.0, 300 mM NaCl, 10% glycerol, 0.02% NaN3 and 0.001% Tween 20); (2) 250 μl 31 μM HLT; (3) 2 ml 1.7 μM HLT-iASPP Pro (in buffer C) for 1 hour with gentle mixing at 4 °C and in the presence of 40 mM imidazole. The samples were centrifuged (2 min 3500 RPM), and washed with buffer C (5 min, 4 °C, gentle mixing). […] Samples were analyzed on a 10% SDS-PAGE gel.

[2] = molecular target: T2, HLT-iASPP Pro; experiment: pull-down; Nickel-NTA beads loaded with HLT-iASPP Pro (1.7 uM), HLT (31 uM) or buffer, 1 h, 4 °C, 40 mM imidazole; then iASPP Ank-SH3 (80 ul of 80 uM, diluted in 1 ml 25 mM phosphate pH 7.0, 10% glycerol, 25 mM imidazole, 100 mM NaCl), 2 h, 4 °C; three washes; eluted by boiling in SDS; Coomassie-stained SDS-PAGE; conditions: both partners purified

| pulldown of iASPP Ank-SH3 [1] | binding result [2] | Molecule |
| --- | --- | --- |
| retrieved | – | HLT-iASPP Pro: recombinant iASPP Pro 1-602 with HLT (His-lipoyl domain-TEV) tag (protein, left off: HLT (His tag, lipoyl domain, TEV protease cleavage site), N-terminal, kept, recombinant iASPP Pro 1-602 with HLT (His-lipoyl domain-TEV) tag) MDSEAFQSARDFLDMNFQSLAMKHMDLKQMELDTAAAKVDELTKQLESLWSDSPAPPGPQAGPPSRPPRYSSSSIPEPFGSRGSPRKAATDGADTPFGRSESAPTLHPYSPLSPKGRPSSPRTPLYLQPDAYGSLDRATSPRPRAFDGAGSSLGRAPSPRPGPGPLRQQGPPTPFDFLGRAGSPRGSPLAEGPQAFFPERGPSPRPPATAYDAPASAFGSSLLGSGGSAFAPPLRAQDDLTLRRRPPKAWNESDLDVAYEKKPSQTASYERLDVFARPASPSLQLLPWRESSLDGLGGTGKDNLTSATLPRNYKVSPLASDRRSDAGSYRRSLGSAGPSGTLPRSWQPVSRIPMPPSSPQPRGAPRQRPIPLSMIFKLQNAFWEHGASRAMLPGSPLFTRAPPPKLQPQPQPQPQPQSQPQPQLPPQPQTQPQTPTPAPQHPQQTWPPVNEGPPKPPTELEPEPEIEGLLTPVLEAGDVDEGPVARPLSPTRLQPALPPEAQSVPELEEVARVLAEIPRPLKRRGSMEQAPAVALPPTHKKQYQQIISRLFHRHGGPGPGGPEPELSPITEGSEARAGPPAPAPPAPIPPPAPSQSSPPEQP |
| – | binds | iASPP Ank-SH3 (domain or fragment, human, UniProt Q8WUF5 603-828, looked up, iASPP (human), four ankyrin repeats and SH3 domain, residues 603-828, Swiss-Prot Q8WUF5; also called iASPP Ank-SH3 603-828; cleaved iASPP Ank-SH3; source: E. coli HMS 174, purified (Nickel Sepharose, TEV cleavage, second Nickel column, size exclusion chromatography); not shown: HLT (His tag, lipoyl domain, TEV protease cleavage site), N-terminal, cleaved) QSMEMRSVLRKAGSPRKARRARLNPLVLLLDAALTGELEVVQQAVKEMNDPSQPNEEGITALHNAICGANYSIVDFLITAGANVNSPDSHGWTPLHCAASCNDTVICMALVQHGAAIFATTLSDGATAFEKCDPYREGYADCATYLADVEQSMGLMNSGAVYALWDYSAEFGDELSFREGESVTVLRRDGPEETDWWWAALHGQEGYVPRNYFGLFPRVKPQRSKV |
